From patent publication US20180171024A1

What was measured:
[1] = molecular target: HLA-A2 on unloaded T2 cells (human); assay: flow cytometry, T2 cells
[2] = molecular target: HLA-A2 on cells (tumor cell lines, normal primary cells, PBMCs) (human); assay: flow cytometry, SW620 cells
[3] = molecular target: HLA-A2 on cells (tumor cell lines, normal primary cells, PBMCs) (human); assay: flow cytometry, DG-75 cells, 10 µg/ml
[4] = molecular target: HLA-A2 on cells (tumor cell lines, normal primary cells, PBMCs) (human); assay: flow cytometry, 501A cells
[5] = molecular target: HLA-A2 on cells (tumor cell lines, normal primary cells, PBMCs) (human); assay: flow cytometry, SKMEL5 cells
[6] = molecular target: HLA-A2 on cells (tumor cell lines, normal primary cells, PBMCs) (human); assay: flow cytometry, A375 melanoma cells, 10 µg/ml
[7] = molecular target: Unloaded T2 (Homo sapiens); assay: flow cytometry, unloaded T2 cells
[8] = molecular target: HLA-A2/Gag on T2 cells (human); assay: flow cytometry, T2 cells loaded with GAG peptide
[9] = molecular target: HLA-A2 on cells (tumor cell lines, normal primary cells, PBMCs) (human); assay: flow cytometry, 501A melanoma cells
[10] = molecular target: HLA-A2 on cells (tumor cell lines, normal primary cells, PBMCs) (human); assay: flow cytometry, 'Umbryonic cells' #HUE-1, 10 µg/ml
[11] = molecular target: HLA-A2 on cells (tumor cell lines, normal primary cells, PBMCs) (human); assay: flow cytometry, SK-Mel5 melanoma cells
[12] = molecular target: HLA-A2 on cells (tumor cell lines, normal primary cells, PBMCs) (human); assay: flow cytometry, SET-2 cells, 10 µg/ml
[13] = molecular target: HLA-A2 on cells (tumor cell lines, normal primary cells, PBMCs) (human); assay: flow cytometry, ST486 cells, 10 µg/ml
[14] = molecular target: HLA-A2 on cells (tumor cell lines, normal primary cells, PBMCs) (human); assay: flow cytometry, Malme-3M melanoma cells
[15] = molecular target: HLA-A2 on cells (tumor cell lines, normal primary cells, PBMCs) (human); assay: flow cytometry, astrocytes 1840, 10 µg/ml
[16] = molecular target: HLA-A2/SSX-2 on T2 cells (human); assay: flow cytometry, T2 cells loaded with SSX2 [..], 10 µg/ml
[17] = molecular target: HLA-A2 on HLA-A2+/WT1+ BV173 cells (WT1 mRNA positive; WT1 126-134 peptide not detected by mass spectrometry of eluted HLA peptides); assay: flow cytometry on BV173 cells (WT1 mRNA +)
[18] = molecular target: HLA-A2 on HLA-A2+/WT1+ SET2 cells (WT1 mRNA positive; WT1 126-134 peptide not detected by mass spectrometry of eluted HLA peptides); assay: flow cytometry on SET-2 cells (WT1 mRNA +)
[19] = molecular target: HLA-A2/GPLD1 on T2 cells (human); assay: flow cytometry, T2 cells loaded with GPLD1 [..], 10 µg/ml
[20] = molecular target: HLA-A2 on unloaded T2 cells (human); assay: flow cytometry, unloaded T2 cells, 10 µg/ml
[21] = molecular target: HLA-A2 on cells (tumor cell lines, normal primary cells, PBMCs) (human); assay: flow cytometry, PANC-1 pancreatic carcinoma cells, 10 µg/ml
[22] = molecular target: HLA-A2/TyrD-S2 on T2 cells (human); assay: flow cytometry, T2 cells loaded with TyrD S2 [..], 10 µg/ml
[23] = molecular target: HLA-A2/TyrD-S7 on T2 cells (human); assay: flow cytometry, T2 cells loaded with TyrD S7 [..], 10 µg/ml
[24] = molecular target: HLA-A2/TyrD-S13 on T2 cells (human); assay: flow cytometry, T2 cells loaded with TyrD S13 [..], 10 µg/ml
[25] = molecular target: HLA-A2/Tyrosinase369-377 complex on cells (human); assay: flow cytometry, T2 cells loaded with TYR peptide
[26] = molecular target: HLA-A2/209M on T2 cells (human); assay: flow cytometry, T2 cells loaded with 209M peptide
[27] = molecular target: HLA-A2 on cells (tumor cell lines, normal primary cells, PBMCs) (human); assay: flow cytometry, Malme-3M melanoma cells, 10 µg/ml
[28] = molecular target: HLA-A2/Tyrosinase369-377 complex on cells (human); assay: flow cytometry, T2 cells loaded with 10^-4 M peptide
P68 … (Homo sapiens) = assay: as above
[29] = molecular target: HLA-A2 on cells (tumor cell lines, normal primary cells, PBMCs) (human); assay: flow cytometry, renal epithelial cells 4100-2, 10 µg/ml
[30] = molecular target: HLA-A2/WT1 126-134 complex on T2 cells (human); assay: flow cytometry, T2 cells loaded with WT1 peptide 1x10e-4M
[31] = molecular target: HLA-A2/TyrD-S3 on T2 cells (human); assay: flow cytometry, T2 cells loaded with TyrD S3 [..], 10 µg/ml
[32] = molecular target: HLA-A2/KIAA0355 on T2 cells (human); assay: flow cytometry, T2 cells loaded with KIAA0335 [..], 10 µg/ml
[33] = molecular target: HLA-A2/TyrD-S18 on T2 cells (human); assay: flow cytometry, T2 cells loaded with TyrD-S18 [..], 10 µg/ml
[34] = molecular target: HLA-A2/WT1 126-134 complex on T2 cells (human); assay: flow cytometry, peptide-loaded T2 cells (10^-4-10^-5 M), PE anti-mouse
[35] = molecular target: HLA-A2/WT1-S11 on T2 cells (human); assay: as above
[36] = molecular target: HLA-A2/WT1-S3 on T2 cells (human); assay: as above
[37] = molecular target: HLA-A2/WT1-S5 on T2 cells (human); assay: as above
[38] = molecular target: HLA-A2/WT1-S6 on T2 cells (human); assay: as above

BB7.2 (antibody)
GeoMean [1]: 1380 | GeoMean [2]: 369 | MFI [3]: 700 | GeoMean [4]: 1290 | GeoMean [5]: 281 | MFI [6]: 196 | MFI [7]: 290 | MFI [8]: 1840 | MFI [9]: 389 | MFI [10]: 553 | MFI [11]: 76 | MFI [12]: 274 | MFI [13]: 681 | MFI [14]: 372 | MFI [15]: 569 | MFI relative to background [16]: 1280 | MFI [17]: 962 | MFI [18]: 890 | MFI relative to background [19]: 364 | MFI relative to background [20]: 286 | MFI [21]: 242 | MFI relative to background [22]: 929 | MFI relative to background [23]: 666 | MFI relative to background [24]: 749 | MFI [25]: 2200 | MFI [26]: 2870 | MFI [27]: 540 | MFI [28]: 471 | MFI (P68 … (Homo sapiens)): 542 | MFI [29]: 564 | MFI [30]: 722 | MFI relative to background [31]: 430 | MFI relative to background [32]: 714 | MFI relative to background [33]: 838 | MFI [34]: 2260 | MFI [35]: 1670 | MFI [36]: 1410 | MFI [37]: 1080 | MFI [38]: 1670
